The values below come from article PMC10180619 (Nature Communications, 2023).

In this experiment the target is T1, SARS-CoV-2 WT (Wuhan-1) receptor binding domain (SARS-CoV-2, Wuhan-Hu-1, UniProt P0DTC2, biotin (EZ-Link Sulfo-NHS-LC-Biotin, average of four biotins per RBD molecule)).
T1 construct: source: bought: Acro Biosystems (Cat #SPD-C52H3)
Briefly: BLI. Particulars: both partners purified.

B1: ADI-81654 (Fab, V domains shown)
VH: QVQLKQSGPTLVKPTQTLTLTCTFSGFSLSTYGVGVGWIRQPPGKALEWLALIYYDDDKRYSPSLKSRLTITKDTSQNQVVLTMTNMDPVDTATYYCARHTIATIFDFDSWGQGTLVTVSS
VL: QSVLTQPASVSGSPGQSITISCTGTSSDVGGHNYVSWYQQHPGKAPKLMIYEVSNRPSGVSNRFSGSKSGNTASLTISGLQAEDEADYSCSSYASSTSPVVFGGVTKLTVL
B1 came in with a Kd of 56 nM.

By Kd is commonly meant a measure of binding affinity in units of concentration. The low end stands for a tighter complex, the high end for a looser complex.
